Measured values as given in the RNAGym collection of RNA variant scans (doi:10.7554/elife.80360).

B1: CPEB3 Ribozyme (parent)
chain: GGGGGCCACAGCAGAAGCGUUCACGUCGCGGCCCCUGUCAGAUUCUGGUGAAUCUGCGAAUUCUGCUGU

Variants of: B1
Experiment: self-cleavage, relative activity (ratio to wild type); higher = more cleavage; co-transcriptional

Row | Variant | self-cleavage
1 | GGGCGCCACAGCAGAUGCGUUCACGUCGCGGCCCCUGUCAGAUUCUGGUGAAUCUGCGAAUUCUGCUGU | 0.197
2 | GGGCGCCACAGCAGACGCGUUCACGUCGCGGCCCCUGUCAGAUUCUGGUGAAUCUGCGAAUUCUGCUGU | 0.0339
3 | GGGAGCCACAGCAGAAGCGUUCACGUCGCGGCCCCUGUCAGAUUCUGUUGAAUCUGCGAAUUCUGCUGU | 0.919
4 | GGGAGCCACAGCAGAAGCGUUCACGUCGCGGCCCCUGUCAGAUUCUGCUGAAUCUGCGAAUUCUGCUGU | 0.802
5 | GGGAGCCACAGCAGAAGCGUUCACGUCGCGGCCCCUGUCAGAUUCUGGUGAAUCUGCCAAUUCUGCUGU | 0.701
6 | GGGCGCCACAGCAGAAGCGUUCACGUCGCGGCCCCUGUCAGGUUCUGGUGAAUCUGCGAAUUCUGCUGU | 0.667
7 | GGGAGCCACAGCAGAAGCGUUCACGUCGCGGCCCUUGUCAGAUUCUGGUGAAUCUGCGAAUUCUGCUGU | 0.244
8 | GGGAGCCACAGCAGAAGCGCUCACGUCGCGGCCCCUGUCAGAUUCUGGUGAAUCUGCGAAUUCUGCUGU | 0.128
9 | GGGAGCCACAGCAGAAGCGUUCACGUCACGGCCCCUGUCAGAUUCUGGUGAAUCUGCGAAUUCUGCUGU | 0.117
10 | GGGAGCGACAGCAGAAGCGUUCACGUCGCGGCCCCUGUCAGAUUCUGGUGAAUCUGCGAAUUCUGCUGU | 0.0338
11 | GGGCGCCACGGCAGAAGCGUUCACGUCGCGGCCCCUGUCAGAUUCUGGUGAAUCUGCGAAUUCUGCUGU | 0.748
12 | GGGCGCCACCGCAGAAGCGUUCACGUCGCGGCCCCUGUCAGAUUCUGGUGAAUCUGCGAAUUCUGCUGU | 0.844
13 | GGGAGCCACAGCAGAAGCGUUCACGUCGCGGCCCCUGUCAGAUUCUGGUGAAUCUGCGAAUUCUGCUCU | 0.959
14 | GGGAGCCACAGCAGAAGCGUUCACGUCGCGGCCCCUGUCAGAUUCUGGUGAAUCUGCGAAUUCUGCUAU | 0.999
15 | GGGCGCCACAGCAGAAGCGUUCACGUCGCGGCCCCUGUCAGAUUCUGGUGAAUCUGCGAAUUCUGCUGU | 0.69
16 | GGGAGCCACAGCAGAAGCGUUCACGUCGCGGCCCCUGUCAGAUUCUGGUGAAUCUACGAAUUCUGCUGU | 0.604
17 | GGGAGCCACAGUAGAAGCGUUCACGUCGCGGCCCCUGUCAGAUUCUGGUGAAUCUGCGAAUUCUGCUGU | 0.876
18 | GGGAGCCACAGCAGAAGCGUUCACGUCGCGGCACCUGUCAGAUUCUGGUGAAUCUGCGAAUUCUGCUGU | 0.897
19 | GGGAGCCACAGCAGAAGCGUUCACGUCGCGGCUCCUGUCAGAUUCUGGUGAAUCUGCGAAUUCUGCUGU | 0.968
20 | GGGCGCCACAGCCGAAGCGUUCACGUCGCGGCCCCUGUCAGAUUCUGGUGAAUCUGCGAAUUCUGCUGU | 0.216
21 | GGGAGCCACAGCAGAAGCGUUCACGUCGCGGCCCCUGUCAGAUUCUGGUGAAACUGCGAAUUCUGCUGU | 0.602
22 | GGGAGCCACAGCAGAAGCGUUCACGUCGCGGCCCCUGUCAGAUUCUGGUGAAGCUGCGAAUUCUGCUGU | 0.517
23 | GGGAGCCACAGCAGAAGCGUUCACGUCGCGGCCCCUGUCAGAUUCUGGUGACUCUGCGAAUUCUGCUGU | 0.763
24 | GGGAGCCACAGCAGAAGCGUUCACGUCGCGGCCCCUGUCAGAUUCUGGUGAGUCUGCGAAUUCUGCUGU | 0.864
25 | GGGCGCCACAGCAGAAGCGUUCACGUCGCGGCCCCUGUCAGAUUCUGGUGAAUCUGCGCAUUCUGCUGU | 0.187
26 | GGGAGCCACAGCAGAAGCGUUCACGUCGCGGCCCCUGUCAGAUUCUUGUGAAUCUGCGAAUUCUGCUGU | 0.899

Row | Variant | self-cleavage
27 | GGGAGCCACAGCAGAAGCGUUCACGUCGCGGCCCCUGUCAGAUUCUGGUGAAUCUGCGAACUCUGCUGU | 0.433
28 | GGGAGCCACAGCAGAAGCGUUCACGUCGCGGCCCCUGUCAGAUUCGGGUGAAUCUGCGAAUUCUGCUGU | 0.841
29 | GGGAGCCACAGCAGAAGCGUUCACGUCGCGGCCCCUGUCAGAUUCAGGUGAAUCUGCGAAUUCUGCUGU | 0.899
30 | GGGAGCCACAGCAGAAGCGUUCACGUCGCGGCCCCUGUCAGUUUCUGGUGAAUCUGCGAAUUCUGCUGU | 0.721
31 | GGGAGCCACAGCAGAAGCGUUCACGUCGCGGCCCCUGUCACAUUCUGGUGAAUCUGCGAAUUCUGCUGU | 0.341
32 | GGGAGCCACAGCAGAAGCGUUCACGUCGCGGCCCCUGUCAUAUUCUGGUGAAUCUGCGAAUUCUGCUGU | 0.525
33 | GGGAGCCACAGCAAAAGCGUUCACGUCGCGGCCCCUGUCAGAUUCUGGUGAAUCUGCGAAUUCUGCUGU | 0.401
34 | GGGAGCCACAGCAGAAGCGUUCACGUCGCGGCCCCUGUCAGAUUCUGGUGAAUCUGCGAAUUGUGCUGU | 0.521
35 | GGGAGCCACAGCAGAAGCGUUCACGUCGCGGCCCCUGUCAGAUUCUGGUGAAUCUGCGAAUUAUGCUGU | 0.483
36 | GGGAGCCACAGCGGAAGCGUUCACGUCGCGGCCCCUGUCAGAUUCUGGUGAAUCUGCGAAUUCUGCUGU | 0.88
37 | GGGAGCCACAGCAGAAGCGUUCACGUCGCGGCCCCUGUCAGAUUCUGGUGAAUCUGCGAAUACUGCUGU | 0.601
38 | GGGAGCCACAGCAGAAGCGUUCACGUCGCGGCCCCUGUCAGAUUCUGGUGAAUCUGCGAAUGCUGCUGU | 0.419
39 | GGGCGCCACAGCAGAAGCGUUCACGUCGCGGCCCCUGUCAGAUUCUGGUGAUUCUGCGAAUUCUGCUGU | 0.603
40 | GGGAGCCACAGCAGAAGCGUUCACGUCGCGGCCCCUGUCAGAUUGUGGUGAAUCUGCGAAUUCUGCUGU | 0.691
41 | GGGAGCCACAGCAGAAGCGUUCACGUCGCGGGCCCUGUCAGAUUCUGGUGAAUCUGCGAAUUCUGCUGU | 0.171
42 | GGGAGCCACAGCAGAAGCGUUCACGUCGCGGUCCCUGUCAGAUUCUGGUGAAUCUGCGAAUUCUGCUGU | 0.495
43 | GGGCGCCACAGCAGUAGCGUUCACGUCGCGGCCCCUGUCAGAUUCUGGUGAAUCUGCGAAUUCUGCUGU | 0.0935
44 | GGGCGCCACAGCAGAAGCGUUCUCGUCGCGGCCCCUGUCAGAUUCUGGUGAAUCUGCGAAUUCUGCUGU | 0.801
45 | GGGAGCCACAGCAGAAGCGUACACGUCGCGGCCCCUGUCAGAUUCUGGUGAAUCUGCGAAUUCUGCUGU | 0.793
46 | GGGAUCCACAGCAGAAGCGUUCACGUCGCGGCCCCUGUCAGAUUCUGGUGAAUCUGCGAAUUCUGCUGU | 0.0889
47 | GGGAGCCACAGCAGAAGCGUUCACGUCGCGGCCCCUGUCAGAUUCUGGUGGAUCUGCGAAUUCUGCUGU | 0.787
48 | GGGAGCCACAGCAGAAGCGUUCACGUCGCGGCCCCUGUCAGAUUCUGGUGCAUCUGCGAAUUCUGCUGU | 0.702
49 | GGGAGCCACAGCAGAAGCGUUCACGUCGCGGCCCCAGUCAGAUUCUGGUGAAUCUGCGAAUUCUGCUGU | 0.13
50 | GGGAGCCACAGCAGAAGCGUUCACGUCGCGGCCCCUGUCGGAUUCUGGUGAAUCUGCGAAUUCUGCUGU | 0.773
51 | GGGAGCCACAGCAGAAGCGUUCACGUCGCGGCCCCUGUCUGAUUCUGGUGAAUCUGCGAAUUCUGCUGU | 0.48
52 | GGGAGCCACAGCAGAAGCGUUCACGUCGCGGCCCCUGUCAGAUUCUGGUGAAUCUGCGAAUUCCGCUGU | 0.696

Row | Variant | self-cleavage
53 | GGGAGCCACAGCAGAAGCGUUCACGUCGCGGCCCCUGUCAGAUUCUGGUGAAUCUGCGAAUUCAGCUGU | 0.7
54 | GGGAGCCACAGCAGAAGCGUUCACGUCGCGGCCCCUGUCAGAUUCUGGUGAAUCUGCGAAUUCGGCUGU | 0.672
55 | GGGAGCCACAGCAGAAGCGUUCACGUCGCGGCCGCUGUCAGAUUCUGGUGAAUCUGCGAAUUCUGCUGU | 0.16
56 | GGGAGCCACAGCAGAAUCGUUCACGUCGCGGCCCCUGUCAGAUUCUGGUGAAUCUGCGAAUUCUGCUGU | 0.145
57 | GGGAGCCACAGCAGAAGCGUUCACGUGGCGGCCCCUGUCAGAUUCUGGUGAAUCUGCGAAUUCUGCUGU | 0.119
58 | GGGAGCCACAGCAGAAGCGUUCACGACGCGGCCCCUGUCAGAUUCUGGUGAAUCUGCGAAUUCUGCUGU | 0.604
59 | GGGAGCCACAGCAGAAGCGUUCACGGCGCGGCCCCUGUCAGAUUCUGGUGAAUCUGCGAAUUCUGCUGU | 0.504
60 | GGGAGCCACAGCAGAAGCAUUCACGUCGCGGCCCCUGUCAGAUUCUGGUGAAUCUGCGAAUUCUGCUGU | 0.092
61 | GGGAGCCACAGCAGAAGCGUUCACGUCGCGGCCCCUGUCAGAUUCUGGUGAAUCUGCGAAUUCUGCUGC | 1.04
62 | GGGAGCCACAGCAGAAGCGUUAACGUCGCGGCCCCUGUCAGAUUCUGGUGAAUCUGCGAAUUCUGCUGU | 0.087
63 | GGGAGCCACAGCAGAAGCGUUCACGUCGCGACCCCUGUCAGAUUCUGGUGAAUCUGCGAAUUCUGCUGU | 0.227
64 | GGGCGCCACAGCAGAAGCGUUCACGUCGCGGCCCCUGUCAGAUUCUGGUGAAUCUGCGACUUCUGCUGU | 0.188
65 | GGGAGCCACAGCAGAAGCGUUCACGUCGCGGCCCCUGCCAGAUUCUGGUGAAUCUGCGAAUUCUGCUGU | 0.699
66 | GGGAGCCACAGCAGAAGCGUUCACGUCGCGGCCCCUGUCAGAUUCUGGUGAAUCUGCGAAUUCUGGUGU | 0.799
67 | GGGAGCCACAGCAGAAGCGUUCACCUCGCGGCCCCUGUCAGAUUCUGGUGAAUCUGCGAAUUCUGCUGU | 0.114
68 | GGGAGCCACAGCAGAAGCGUUCACGUCGCGGCCCCUGUCAGAUUCUGGUGAAUUUGCGAAUUCUGCUGU | 0.776
69 | GGGAGCCACAGCAGAAGCGUUCACGUCGCGGCCCCUGUCAGAUUCUGGUGAAUAUGCGAAUUCUGCUGU | 0.457
70 | GGGAGCCACAGCAGAAGCGUUCCCGUCGCGGCCCCUGUCAGAUUCUGGUGAAUCUGCGAAUUCUGCUGU | 0.573
71 | GGGAGCCACAGCAGAAGCGUUCACGUCGCGGCCCCUGUCAGAUUCUGGUGAAUCCGCGAAUUCUGCUGU | 0.351
72 | GGGAGCCACAGCAGAAGCGUUCACGUCGCGGCCCCUGUCAGAUUCUGGUGAAUCAGCGAAUUCUGCUGU | 0.636
73 | GGGAGCCACAGCAGAAGCGUUCACGUCGAGGCCCCUGUCAGAUUCUGGUGAAUCUGCGAAUUCUGCUGU | 0.226
74 | GGGAGCCACAGCAGACGCGUUCACGUCGCGGCCCCUGUCAGAUUCUGGUGAAUCUGCGAAUUCUGCUGU | 0.0992
75 | GGGAGCCACAGCAGAAGCGUUCACGUCGCGGCCCCUGUCAGAUUCUGGAGAAUCUGCGAAUUCUGCUGU | 0.852
76 | GGGAGCCACAGCAGAAGCGUUCACGUCGCGGCCCCUGUGAGAUUCUGGUGAAUCUGCGAAUUCUGCUGU | 0.717
77 | GGGAGUCACAGCAGAAGCGUUCACGUCGCGGCCCCUGUCAGAUUCUGGUGAAUCUGCGAAUUCUGCUGU | 0.426
78 | GGGAGGCACAGCAGAAGCGUUCACGUCGCGGCCCCUGUCAGAUUCUGGUGAAUCUGCGAAUUCUGCUGU | 0.07
